WO2023190851A1

target: SARS-CoV-2 Spike RBD, His Tag (B.1.1.529/Omicron) (SARS-CoV-2, Omicron B.1.1.529 (BA.1) lineage) (UniProt P0DTC2)

| Substance | binding inhibition rate (%) at 2 μg/ml [%] |
| --- | --- |
| REGN10987 (antibody) | < 30 |
| S309 (antibody) | < 30 |
| AZD1061 (antibody) | < 30 |
| LY_CoV555 (antibody) | < 30 |
| REGN10933 (antibody) | < 30 |
| LY_CoV16 (antibody) | < 30 |
| ADG2 (antibody) | < 30 |
| AZD8895 (antibody) | < 30 |
